Assay results as given in PMC4241043.

Assays:
[1] = target: protein FAF on the surface of F. magna strain ALB8 (F. magna (endogenous in strain ALB8)); assay: radioligand binding
[2] = target: protein FAF (F. magna adhesion factor), recombinant, amino acids 28-616 (F. magna); assay: SPR
[3] = target: FAF-expressing strains (ALB8, L3410, 1462 and 2133); assay: radioligand binding

galectin-7, sequence (P47929 whole entry, the tested form may be a part): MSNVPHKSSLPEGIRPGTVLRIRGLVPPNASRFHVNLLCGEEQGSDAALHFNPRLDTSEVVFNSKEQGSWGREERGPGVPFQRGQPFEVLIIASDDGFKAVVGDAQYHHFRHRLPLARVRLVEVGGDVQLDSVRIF

Row | Substance | percent binding of 125I-labelled fragment [1] [%] | Kd [2] [nM] | percent of added radiolabelled galectin-7 bound [3] [%]
1 | rFBN2-2, N-terminal half of fibrillin-2 (domain or fragment) | 17 | – | –
2 | galectin-7 (from UniProt P47929 1-136) (natural protein) | – | 0.53 | 20 to 30
3 | rF16, N-terminal half of fibrillin-1 (domain or fragment) | 24 | – | –
